Source: patent publication US6358897B1, “Alkyl trypsin compositions and methods of use in contact lens cleaning and disinfecting systems” (Alcon Laboratories, Inc., priority 1996, dated 2002)

Key:
Format in all cases: physicochemical
azocasein [1] = experiment: Thermal stability of Me-trypsin and trypsin in a disinfecting solution (Example 5C), azocasein method; settings: Example 5C composition, 50 μg/ml
Method: Azocasein Method The following solutions are used in this assay: 1) Buffer solution: 0.05 M sodium phosphate buffer containing 0.9% sodium chloride, pH 7.6. 2) Substrate solution: 2 mg/ml azocasein in the buffer solution mentioned above. The assay is initiated by mixing 1 ml of an appropriately diluted (such that the enzyme activity is in the range of standard curve) enzyme composition in phosphate buffer with 2 ml of azocasein substrate solution (2 mg/ml). After incubation at 37° C. for 20 minutes, the mixture is removed from the incubator and 1 ml of trichloroacetic acid to (14% w/v) is added to stop the enzyme reaction. The mixture is vortexed well and allowed to stand at room temperature for 20 minutes. After centrifuging at 2500 rpm (with a Beckman GS-6R Centrifuge) for 15 minutes, the supernatant is filtered with a serum sampler. 2 ml of the clear yellow filtrate is then adjusted to a neutral pH with 2 ml of 0.5 N sodium hydroxide and the absorbance of 440 nm wavelength light is measured with a spectrophotometer. The amount of azocasein hydrolyzed is calculated based on a standard curve of known concentrations of azocasein solution developed under identical conditions. An enzyme activity unit (“AZ U”) is defined as that amount of enzyme which hydrolyzes 1 μg of azocasein substrate/minute at 37° C. The following is an example of the stability of Me-trypsin in a disinfecting composition of the present invention as compared to an analogous composition containing trypsin. The enzymes were solubilized in the Example 5C composition. The two compositions were incubated at 35° C. or 40° C. At the appointed time, aliquots were tested for enzyme activity by the azocasein method. Activity levels were compared with initial levels and expressed as percent remaining activity.

azocasein [2] = experiment: Enzyme stability of the Example 6 multi-purpose composition versus trypsin or pancreatin compositions, azocasein method; settings: Me-trypsin: Example 6 composition, trypsin/pancreatin: 1.4 mL of Example 3B analog in 120 mL of Example 2B
Method: Azocasein Method The following solutions are used in this assay: 1) Buffer solution: 0.05 M sodium phosphate buffer containing 0.9% sodium chloride, pH 7.6. 2) Substrate solution: 2 mg/ml azocasein in the buffer solution mentioned above. The assay is initiated by mixing 1 ml of an appropriately diluted (such that the enzyme activity is in the range of standard curve) enzyme composition in phosphate buffer with 2 ml of azocasein substrate solution (2 mg/ml). After incubation at 37° C. for 20 minutes, the mixture is removed from the incubator and 1 ml of trichloroacetic acid to (14% w/v) is added to stop the enzyme reaction. The mixture is vortexed well and allowed to stand at room temperature for 20 minutes. After centrifuging at 2500 rpm (with a Beckman GS-6R Centrifuge) for 15 minutes, the supernatant is filtered with a serum sampler. 2 ml of the clear yellow filtrate is then adjusted to a neutral pH with 2 ml of 0.5 N sodium hydroxide and the absorbance of 440 nm wavelength light is measured with a spectrophotometer. The amount of azocasein hydrolyzed is calculated based on a standard curve of known concentrations of azocasein solution developed under identical conditions. An enzyme activity unit (“AZ U”) is defined as that amount of enzyme which hydrolyzes 1 μg of azocasein substrate/minute at 37° C. […] The trypsin or pancreatin compositions were prepared by dispersing 1.4 mL of Example 3B (wherein Me-trypsin was replaced by either trypsin or pancreatin) in 120 mL of Example 2B. The compositions were incubated at room temperature, 30° and 35° C. At the appointed time, aliquots were tested for enzyme activity by the azocasein method. Activity levels were compared with initial levels and expressed as percent remaining activity.

azocasein [3] = experiment: Stability of Et-trypsin and trypsin in a disinfecting composition (Example 2B), azocasein method; settings: 37° C., Example 2B composition, 50 μg/ml
Method: Azocasein Method The following solutions are used in this assay: 1) Buffer solution: 0.05 M sodium phosphate buffer containing 0.9% sodium chloride, pH 7.6. 2) Substrate solution: 2 mg/ml azocasein in the buffer solution mentioned above. The assay is initiated by mixing 1 ml of an appropriately diluted (such that the enzyme activity is in the range of standard curve) enzyme composition in phosphate buffer with 2 ml of azocasein substrate solution (2 mg/ml). After incubation at 37° C. for 20 minutes, the mixture is removed from the incubator and 1 ml of trichloroacetic acid to (14% w/v) is added to stop the enzyme reaction. The mixture is vortexed well and allowed to stand at room temperature for 20 minutes. After centrifuging at 2500 rpm (with a Beckman GS-6R Centrifuge) for 15 minutes, the supernatant is filtered with a serum sampler. 2 ml of the clear yellow filtrate is then adjusted to a neutral pH with 2 ml of 0.5 N sodium hydroxide and the absorbance of 440 nm wavelength light is measured with a spectrophotometer. The amount of azocasein hydrolyzed is calculated based on a standard curve of known concentrations of azocasein solution developed under identical conditions. An enzyme activity unit (“AZ U”) is defined as that amount of enzyme which hydrolyzes 1 μg of azocasein substrate/minute at 37° C. The following is an example of the stability of Et-trypsin or Me-trypsin in a disinfecting composition of the present invention as compared to an analogous composition containing trypsin. The enzymes were solubilized in the Example 2B composition. The compositions were stored at 37° or 50° C. for 8 days or 30 hours, respectively. At various time points, enzyme activity was assayed using the azocasein method.

Substance	% Activity Remaining (azocasein [1]; 35° C., 24 hrs)	% Activity Remaining (azocasein [1]; 35° C., 48 hrs)	% Activity Remaining (azocasein [1]; 35° C., 72 hrs)	% Activity Remaining (azocasein [1]; 35° C., 168 hrs)	% Activity Remaining (azocasein [1]; 40° C., 24 hrs)	% Activity Remaining (azocasein [1]; 40° C., 114 hrs)	% Activity Remaining (azocasein [1]; 40° C., 168 hrs)	% Remaining Activity (azocasein [2]; 30° C., 1 week)	% Remaining Activity (azocasein [2]; 30° C., 2 weeks)	% Remaining Activity (azocasein [2]; 30° C., 3 weeks)	% Remaining Activity (azocasein [2]; 30° C., 4 weeks)	% Remaining Activity (azocasein [2]; 30° C., 6 weeks)	% Remaining Activity (azocasein [2]; 30° C., 8 weeks)	% Remaining Activity (azocasein [2]; 35° C., 1 week)	% Remaining Activity (azocasein [2]; 35° C., 2 weeks)	% Remaining Activity (azocasein [2]; 35° C., 3 weeks)	% Remaining Activity (azocasein [2]; 35° C., 4 weeks)	% Remaining Activity (azocasein [2]; 35° C., 6 weeks)	% Remaining Activity (azocasein [2]; 35° C., 8 weeks)	% Remaining Activity (azocasein [2]; RT, 1 week)	further results
Trypsin [Native Trypsin, reference compound]	69.9%	55.9%	48.5%	37.6%	42.4%	19.4%	17.4%	65.7%	54.6%	47.1%	44.9%	35.8%	30.4%	30.8%	19.9%	13.3%	12.8%	8.8%	5.2%	93.5%	% Remaining Activity (azocasein [2]; RT, 2 weeks): 86.8%; % Remaining Activity (azocasein [2]; RT, 3 weeks): 82.5%; % Remaining Activity (azocasein [2]; RT, 4 weeks): 79.5%; % Remaining Activity (azocasein [2]; RT, 6 weeks): 71.0%; % Remaining Activity (azocasein [2]; RT, 8 weeks): 64.2%; % Activity Remaining (azocasein [3]; 1 Hour): 86.8%; % Activity Remaining (azocasein [3]; 2 Hours): 80.0%; % Activity Remaining (azocasein [3]; 4 Hours): 72.7%; % Activity Remaining (azocasein [3]; 6 Hours): 62.9%; % Activity Remaining (azocasein [3]; 8 Hours): 56.6%; % Activity Remaining (azocasein [3]; 1 day): 37.6%; % Activity Remaining (azocasein [3]; 2 days): 26.8%; % Activity Remaining (azocasein [3]; 4 days): 17.9%; % Activity Remaining (azocasein [3]; 8 days): 11.2%
methyl trypsin [Me-Trypsin]	97.6%	96.4%	91.6%	87.3%	88.9%	75.2%	67.0%	97.0%	97.2%	91.1%	90.6%	85.8%	83.0%	82.1%	75.0%	71.4%	65.2%	55.9%	50.3%	101.3%	% Remaining Activity (azocasein [2]; RT, 2 weeks): 99.6%; % Remaining Activity (azocasein [2]; RT, 3 weeks): 98.4%; % Remaining Activity (azocasein [2]; RT, 4 weeks): 98.1%; % Remaining Activity (azocasein [2]; RT, 6 weeks): 96.0%; % Remaining Activity (azocasein [2]; RT, 8 weeks): 96.4%
